Data as given in patent US20250361268A1, “NOVEL ANTI-INFLAMMATORY PEPTIDE AND USE THEREOF” (NOVACELL TECHNOLOGY INC., priority 2022, published 2025).

T1: formyl peptide receptor 2 (FPR2) (UniProt P25090 1-351, limits assumed)
T1 sequence (looked up): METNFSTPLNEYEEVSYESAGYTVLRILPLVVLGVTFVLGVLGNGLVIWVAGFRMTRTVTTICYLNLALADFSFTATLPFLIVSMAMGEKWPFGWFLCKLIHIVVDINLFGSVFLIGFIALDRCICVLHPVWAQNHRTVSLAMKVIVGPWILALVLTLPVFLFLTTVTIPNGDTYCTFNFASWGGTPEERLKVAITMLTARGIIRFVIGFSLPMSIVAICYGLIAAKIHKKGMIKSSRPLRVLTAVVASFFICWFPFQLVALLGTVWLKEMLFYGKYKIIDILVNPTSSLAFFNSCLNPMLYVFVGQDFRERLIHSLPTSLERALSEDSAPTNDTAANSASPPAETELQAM

T2: FPR1 (UniProt P21462 1-350, limits assumed)
T2 sequence (looked up): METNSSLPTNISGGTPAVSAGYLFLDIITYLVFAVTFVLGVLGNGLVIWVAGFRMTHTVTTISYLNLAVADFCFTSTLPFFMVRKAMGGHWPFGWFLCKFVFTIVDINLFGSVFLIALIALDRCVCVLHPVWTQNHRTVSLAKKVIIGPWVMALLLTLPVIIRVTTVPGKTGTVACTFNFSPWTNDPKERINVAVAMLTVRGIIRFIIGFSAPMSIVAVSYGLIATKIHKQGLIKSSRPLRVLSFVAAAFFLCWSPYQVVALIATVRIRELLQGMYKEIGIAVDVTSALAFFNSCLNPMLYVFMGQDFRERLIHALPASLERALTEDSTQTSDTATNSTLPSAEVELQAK


Experiments:
[1] = biological target: T1, formyl peptide receptor 2 (FPR2); assay: cell-based or functional assay
FPR1 = biological target: T2, FPR1; assay: cell-based or functional assay

Binder | EC50 for [Ca2+] [1] | EC50 for [Ca2+] (FPR1)
RWRYKPM (HELM PEPTIDE1{R.W.R.Y.K.P.[dM].[am]}$$$$V2.0; N-terminus assumed; SMILES CSCC[C@@H](NC(=O)[C@@H]1CCCN1C(=O)[C@H](CCCCN)NC(=O)[C@H](Cc1ccc(O)cc1)NC(=O)[C@H](CCCNC(=N)N)NC(=O)[C@H](Cc1c[nH]c2ccccc12)NC(=O)[C@@H](N)CCCNC(=N)N)C(N)=O) [peptide of SEQ ID NO 74] | < 0.01 µM | > 10 µM
PMRYKPM (HELM PEPTIDE1{[ac].P.M.R.Y.K.P.[dM].[am]}$$$$V2.0; SMILES CSCC[C@H](NC(=O)[C@@H]1CCCN1C(C)=O)C(=O)N[C@@H](CCCNC(=N)N)C(=O)N[C@@H](Cc1ccc(O)cc1)C(=O)N[C@@H](CCCCN)C(=O)N1CCC[C@H]1C(=O)N[C@H](CCSC)C(N)=O) [peptide of SEQ ID NO 63] | < 0.01 µM | > 10 µM
RWRYWYM (HELM PEPTIDE1{[ac].R.W.R.Y.W.Y.[dM].[am]}$$$$V2.0; SMILES CSCC[C@@H](NC(=O)[C@H](Cc1ccc(O)cc1)NC(=O)[C@H](Cc1c[nH]c2ccccc12)NC(=O)[C@H](Cc1ccc(O)cc1)NC(=O)[C@H](CCCNC(=N)N)NC(=O)[C@H](Cc1c[nH]c2ccccc12)NC(=O)[C@H](CCCNC(=N)N)NC(C)=O)C(N)=O) [peptide of SEQ ID NO 78] | < 0.01 µM | > 10 µM
KMKYKPM (HELM PEPTIDE1{[ac].K.M.K.Y.K.P.[dM].[am]}$$$$V2.0; SMILES CSCC[C@H](NC(=O)[C@H](CCCCN)NC(C)=O)C(=O)N[C@@H](CCCCN)C(=O)N[C@@H](Cc1ccc(O)cc1)C(=O)N[C@@H](CCCCN)C(=O)N1CCC[C@H]1C(=O)N[C@H](CCSC)C(N)=O) [peptide of SEQ ID NO 67] | < 0.01 µM | > 10 µM
PMRYKPM (HELM PEPTIDE1{[CCCCCCCC(=O)[*:2]].P.M.R.Y.K.P.[dM].[am]}$$$$V2.0; SMILES CCCCCCCC(=O)N1CCC[C@H]1C(=O)N[C@@H](CCSC)C(=O)N[C@@H](CCCNC(=N)N)C(=O)N[C@@H](Cc1ccc(O)cc1)C(=O)N[C@@H](CCCCN)C(=O)N1CCC[C@H]1C(=O)N[C@H](CCSC)C(N)=O) [peptide of SEQ ID NO 65] | < 0.01 µM | > 10 µM
KWKYWYM (HELM PEPTIDE1{[ac].K.W.K.Y.W.Y.[dM].[am]}$$$$V2.0; SMILES CSCC[C@@H](NC(=O)[C@H](Cc1ccc(O)cc1)NC(=O)[C@H](Cc1c[nH]c2ccccc12)NC(=O)[C@H](Cc1ccc(O)cc1)NC(=O)[C@H](CCCCN)NC(=O)[C@H](Cc1c[nH]c2ccccc12)NC(=O)[C@H](CCCCN)NC(C)=O)C(N)=O) [peptide of SEQ ID NO 80] | < 0.01 µM | > 10 µM
PMRYKPM (HELM PEPTIDE1{[CCCC(=O)[*:2]].P.M.R.Y.K.P.[dM].[am]}$$$$V2.0; SMILES CCCC(=O)N1CCC[C@H]1C(=O)N[C@@H](CCSC)C(=O)N[C@@H](CCCNC(=N)N)C(=O)N[C@@H](Cc1ccc(O)cc1)C(=O)N[C@@H](CCCCN)C(=O)N1CCC[C@H]1C(=O)N[C@H](CCSC)C(N)=O) [peptide of SEQ ID NO 64] | < 0.01 µM | > 10 µM
RMRYKVM (HELM PEPTIDE1{[CCCC(=O)[*:2]].R.M.R.Y.K.V.[dM].[am]}$$$$V2.0; SMILES CCCC(=O)N[C@@H](CCCNC(=N)N)C(=O)N[C@@H](CCSC)C(=O)N[C@@H](CCCNC(=N)N)C(=O)N[C@@H](Cc1ccc(O)cc1)C(=O)N[C@@H](CCCCN)C(=O)N[C@H](C(=O)N[C@H](CCSC)C(N)=O)C(C)C) [peptide of SEQ ID NO 7] | < 0.01 µM | > 10 µM
KMKYKPM (HELM PEPTIDE1{[CCCC(=O)[*:2]].K.M.K.Y.K.P.[dM].[am]}$$$$V2.0; SMILES CCCC(=O)N[C@@H](CCCCN)C(=O)N[C@@H](CCSC)C(=O)N[C@@H](CCCCN)C(=O)N[C@@H](Cc1ccc(O)cc1)C(=O)N[C@@H](CCCCN)C(=O)N1CCC[C@H]1C(=O)N[C@H](CCSC)C(N)=O) [peptide of SEQ ID NO 68] | < 0.01 µM | > 10 µM
MKYKPM (HELM PEPTIDE1{M.K.Y.K.P.[dM].[am]}$$$$V2.0; N-terminus assumed; SMILES CSCC[C@H](N)C(=O)N[C@@H](CCCCN)C(=O)N[C@@H](Cc1ccc(O)cc1)C(=O)N[C@@H](CCCCN)C(=O)N1CCC[C@H]1C(=O)N[C@H](CCSC)C(N)=O) [peptide of SEQ ID NO 70] | < 0.01 µM | > 10 µM

Next, values leading:

EC50 for [Ca2+] [1] | EC50 for [Ca2+] (FPR1) | Binder
< 0.01 µM | > 10 µM | RMRYWYM (HELM PEPTIDE1{R.M.R.Y.W.Y.[dM].[am]}$$$$V2.0; N-terminus assumed; SMILES CSCC[C@H](NC(=O)[C@@H](N)CCCNC(=N)N)C(=O)N[C@@H](CCCNC(=N)N)C(=O)N[C@@H](Cc1ccc(O)cc1)C(=O)N[C@@H](Cc1c[nH]c2ccccc12)C(=O)N[C@@H](Cc1ccc(O)cc1)C(=O)N[C@H](CCSC)C(N)=O) [peptide of SEQ ID NO 81]
< 0.01 µM | > 10 µM | MKYWYM (HELM PEPTIDE1{M.K.Y.W.Y.[dM].[am]}$$$$V2.0; N-terminus assumed; SMILES CSCC[C@H](N)C(=O)N[C@@H](CCCCN)C(=O)N[C@@H](Cc1ccc(O)cc1)C(=O)N[C@@H](Cc1c[nH]c2ccccc12)C(=O)N[C@@H](Cc1ccc(O)cc1)C(=O)N[C@H](CCSC)C(N)=O) [peptide of SEQ ID NO 89]
< 0.01 µM | > 10 µM | RMRYWYM (HELM PEPTIDE1{[ac].R.M.R.Y.W.Y.[dM].[am]}$$$$V2.0; SMILES CSCC[C@H](NC(=O)[C@H](CCCNC(=N)N)NC(C)=O)C(=O)N[C@@H](CCCNC(=N)N)C(=O)N[C@@H](Cc1ccc(O)cc1)C(=O)N[C@@H](Cc1c[nH]c2ccccc12)C(=O)N[C@@H](Cc1ccc(O)cc1)C(=O)N[C@H](CCSC)C(N)=O) [peptide of SEQ ID NO 82]
< 0.01 µM | > 10 µM | MRYWYM (HELM PEPTIDE1{M.R.Y.W.Y.[dM].[am]}$$$$V2.0; N-terminus assumed; SMILES CSCC[C@H](N)C(=O)N[C@@H](CCCNC(=N)N)C(=O)N[C@@H](Cc1ccc(O)cc1)C(=O)N[C@@H](Cc1c[nH]c2ccccc12)C(=O)N[C@@H](Cc1ccc(O)cc1)C(=O)N[C@H](CCSC)C(N)=O) [peptide of SEQ ID NO 85]
< 0.01 µM | > 10 µM | MRYWYM (HELM PEPTIDE1{[CCCC(=O)[*:2]].M.R.Y.W.Y.[dM].[am]}$$$$V2.0; SMILES CCCC(=O)N[C@@H](CCSC)C(=O)N[C@@H](CCCNC(=N)N)C(=O)N[C@@H](Cc1ccc(O)cc1)C(=O)N[C@@H](Cc1c[nH]c2ccccc12)C(=O)N[C@@H](Cc1ccc(O)cc1)C(=O)N[C@H](CCSC)C(N)=O) [peptide of SEQ ID NO 87]
< 0.01 µM | > 10 µM | RMRYWYM (HELM PEPTIDE1{[CCCC(=O)[*:2]].R.M.R.Y.W.Y.[dM].[am]}$$$$V2.0; SMILES CCCC(=O)N[C@@H](CCCNC(=N)N)C(=O)N[C@@H](CCSC)C(=O)N[C@@H](CCCNC(=N)N)C(=O)N[C@@H](Cc1ccc(O)cc1)C(=O)N[C@@H](Cc1c[nH]c2ccccc12)C(=O)N[C@@H](Cc1ccc(O)cc1)C(=O)N[C@H](CCSC)C(N)=O) [peptide of SEQ ID NO 83]
< 0.01 µM | > 10 µM | HMRYWYM (HELM PEPTIDE1{[ac].H.M.R.Y.W.Y.[dM].[am]}$$$$V2.0; SMILES CSCC[C@H](NC(=O)[C@H](Cc1c[nH]cn1)NC(C)=O)C(=O)N[C@@H](CCCNC(=N)N)C(=O)N[C@@H](Cc1ccc(O)cc1)C(=O)N[C@@H](Cc1c[nH]c2ccccc12)C(=O)N[C@@H](Cc1ccc(O)cc1)C(=O)N[C@H](CCSC)C(N)=O) [peptide of SEQ ID NO 92]
< 0.01 µM | > 10 µM | MRYWYM (HELM PEPTIDE1{[ac].M.R.Y.W.Y.[dM].[am]}$$$$V2.0; SMILES CSCC[C@H](NC(C)=O)C(=O)N[C@@H](CCCNC(=N)N)C(=O)N[C@@H](Cc1ccc(O)cc1)C(=O)N[C@@H](Cc1c[nH]c2ccccc12)C(=O)N[C@@H](Cc1ccc(O)cc1)C(=O)N[C@H](CCSC)C(N)=O) [peptide of SEQ ID NO 86]
